Assay results published in patent US7943340B2, “Fungal dipeptidyl peptidase IV (DPPIV) enzyme for reagent use” (priority 2003, dated 2011).

What was measured:
[1] = Aminopeptidase activity assay with fluorogenic aminoacyl-AMC substrates; format: biochemical
Procedure: (§1) Aminopeptidase activity was determined using different fluorogenic aminoacyl-4-methylcoumaryl-7-amide derivatives of peptides and the internally quenched fluorogenic substrate Lys(Abz)-Pro-Pro-pNA for specific determination of aminopeptidase P activity. Stockel et al, Adv Exp. Med. Biol. 421:31-35 (1997). All substrates were from Bachem (Bubendorf, Switzerland). Substrate stock solutions were prepared at 0.1 M according to the recommendations of the manufacturer and stored at −20° C. The reaction mixture contained a concentration of 5 mM substrate and enzyme preparation (between 56 and 2,662 ng per assay depending on the cleavage activity of each enzyme for the substrates) in 25 μl of 50 mM Tris-HCl buffer adjusted at the optimal pH for each LAP (between 7 and 8). After incubation at 37° C. for 60 min, the reaction was terminated by adding 5 μl of glacial acetic acid and the reaction mixture was diluted with 3.5 ml of water. The released 7-amino-4-methylcoumarin (AMC) was measured using a spectrofluorophotometer (Perkin Elmer LS-5 fluorometer, Zurich, Switzerland) at an excitation wavelength of 370 nm and an emission wavelength of 460 nm. A standard curve made with synthetic AMC was used to assess the released AMC. The released diprolyl-p-nitroanilide was measured at an excitation wavelength of 310 nm and an emission wavelength of 410 nm. The LA activities were expressed in mnoles of released AMC or pNA/min/μg protein.
Table 15 details the hydrolytic activity of different LAPs toward various aminoacyl-MCA comparison (%) to Leu-MCA used as a standard.

[2] = Aminopeptidase P activity assay; format: biochemical; details: substrate Lys(Abz)-Pro-Pro-pNA, 5 mM, 37° C., 60 min
Procedure: as §1

B1: fuLAP2: A. fumigatus leucine aminopeptidase, 498 amino acid residues (SEQ ID NO: 9) (protein, listed as Aspergillus fumigatus)
chain: MKLLYLTSFASLAVANGPGWDWKPRVHPKVLPQMIHLWDLLQGAQQLEDFAYAYPERNRVFGGRAHEDTVNYLYRELKKTGYYDVYKQPQVHQWTRADQALTVDGQSYDATTMTYSPSVNATAPLAVVNNLGCVEADYPADLTGKIALISRGECTFATKSVLSAKAGAAAALVYNNIEGSMAGTLGGATSELGAYAPIAGISLADGQALIQMIQAGTVTANLWIDSQVENRTTYNVIAQTKGGDPNNVVALGGHTDSVEAGPGINDDGSGIISNLVVAKALTRFSVKNAVRFCFWTAEEFGLLGSNYYVNSLNATEQAKIRLYLNFDMIASPNYALMIYDGDGSAFNLTGPAGSAQIERLFEDYYTSIRKPFVPTEFNGRSDYQAFILNGIPAGGLFTGAEAIKTEEQAQLFGGQAGVALDANYHAKGDNMTNLNREAFLINSRATAFAVATYANSLDSIPPRNMTTVVKRSQLEQAMKRTPHTHTGGTGCYKDRVEQ
- hydrolysis of Leu-AMC [1]: efficiently hydrolyzed
- preference for aminoacyl-AMC substrates compared to Leu-AMC ([1]; Leu-AMC used as a reference): common preference for Leu-AMC as a substrate
- hydrolytic activity toward Ala-AMC in comparison (%) to Leu-MCA ([1]; substrate Ala-AMC, 5 mM, 37° C., 60 min): 11.7%
- hydrolytic activity toward Arg-AMC in comparison (%) to Leu-MCA ([1]; substrate Arg-AMC, 5 mM, 37° C., 60 min): 2.3%
- hydrolytic activity toward Asn-AMC in comparison (%) to Leu-MCA ([1]; substrate Asn-AMC, 5 mM, 37° C., 60 min): 73.5%
- hydrolytic activity toward Asp-AMC in comparison (%) to Leu-MCA ([1]; substrate Asp-AMC, 5 mM, 37° C., 60 min): 0.3%
- hydrolytic activity toward Cys-AMC in comparison (%) to Leu-MCA ([1]; substrate Cys-AMC, 5 mM, 37° C., 60 min): 2.1%
- hydrolytic activity toward Gln-AMC in comparison (%) to Leu-MCA ([1]; substrate Gln-AMC, 5 mM, 37° C., 60 min): 37.0%
- hydrolytic activity toward Glu-AMC in comparison (%) to Leu-MCA ([1]; substrate Glu-AMC, 5 mM, 37° C., 60 min): 1.1%
- hydrolytic activity toward Gly-AMC in comparison (%) to Leu-MCA ([1]; substrate Gly-AMC, 5 mM, 37° C., 60 min): 2.2%
- hydrolytic activity toward Gly-Pro-AMC in comparison (%) to Leu-MCA ([1]; substrate Gly-Pro-AMC, 5 mM, 37° C., 60 min): 74.1%
- hydrolytic activity toward His-AMC in comparison (%) to Leu-MCA ([1]; substrate His-AMC, 5 mM, 37° C., 60 min): 1.9%
- hydrolytic activity toward Hyp-AMC in comparison (%) to Leu-MCA ([1]; substrate Hyp-AMC, 5 mM, 37° C., 60 min): 13.3%
- hydrolytic activity toward Ile-AMC in comparison (%) to Leu-MCA ([1]; substrate Ile-AMC, 5 mM, 37° C., 60 min): 1.8%
- hydrolytic activity toward Leu-AMC in comparison (%) to Leu-MCA used as a standard ([1]; substrate Leu-AMC (standard), 5 mM, 37° C., 60 min): 100.0%
- hydrolytic activity toward Lys-AMC in comparison (%) to Leu-MCA ([1]; substrate Lys-AMC, 5 mM, 37° C., 60 min): 2.3%
- hydrolytic activity toward Met-AMC in comparison (%) to Leu-MCA ([1]; substrate Met-AMC, 5 mM, 37° C., 60 min): 89.5%
- hydrolytic activity toward Phe-AMC in comparison (%) to Leu-MCA ([1]; substrate Phe-AMC, 5 mM, 37° C., 60 min): 8.9%
- hydrolytic activity toward Pro-AMC in comparison (%) to Leu-MCA ([1]; substrate Pro-AMC, 5 mM, 37° C., 60 min): 7.4%
- hydrolytic activity toward Pyr-AMC in comparison (%) to Leu-MCA ([1]; substrate Pyr-AMC, 5 mM, 37° C., 60 min): 0.0%
- hydrolytic activity toward Ser-AMC in comparison (%) to Leu-MCA ([1]; substrate Ser-AMC, 5 mM, 37° C., 60 min): 10.3%
- hydrolytic activity toward Thr-AMC in comparison (%) to Leu-MCA ([1]; substrate Thr-AMC, 5 mM, 37° C., 60 min): 0.1%
- hydrolytic activity toward Val-AMC in comparison (%) to Leu-MCA ([1]; substrate Val-AMC, 5 mM, 37° C., 60 min): 0.8%
- hydrolytic activity toward Lys(Abz) Pro-PropNA in comparison (%) to Leu-MCA [2]: 0.0%
